Here are results for 1 molecule from PMC5780489 (2018).

The target in experiment [1] is T1, PABPC1 RRM1/2/3/4 (residues 1-370) (human, UniProt P11940 1-370). In words: NMR; RRM1/2/3/4 bound to A24 RNA; T438 signal.
The target in experiment [2] is T1, PABPC1 RRM1/2/3/4 (residues 1-370). In words: NMR; RRM1/2/3/4 bound to A24 RNA; W437 signal.

T1 sequence (P11940 1-370): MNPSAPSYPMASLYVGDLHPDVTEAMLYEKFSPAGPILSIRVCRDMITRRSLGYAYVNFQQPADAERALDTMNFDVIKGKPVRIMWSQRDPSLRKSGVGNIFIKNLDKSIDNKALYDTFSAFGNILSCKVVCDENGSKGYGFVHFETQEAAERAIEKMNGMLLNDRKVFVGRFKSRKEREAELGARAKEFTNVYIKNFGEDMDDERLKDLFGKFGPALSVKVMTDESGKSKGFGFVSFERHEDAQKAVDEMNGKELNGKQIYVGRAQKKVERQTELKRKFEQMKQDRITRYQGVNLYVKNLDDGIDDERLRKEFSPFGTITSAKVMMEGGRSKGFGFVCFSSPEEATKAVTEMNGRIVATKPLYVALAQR

As to AYYPPSQIAQLRPSPRWTAQGARPHPFQNMPGAIRPAAPRPPFSTMRPAS [PABPC1 linker fragment Lt2 (residues 421-470)], the Kd in experiment [1] is 24 µM; in experiment [2], 12 µM.

For orientation: Kd means the constant that tells how readily two partners part at equilibrium. A higher Kd goes with lower affinity.
